Results from IntAct's records for PubMed 21785410.

B1: NAP1-binding protein (Saccharomyces cerevisiae), P52919 (parent)
chain: MLKSVQGLWKDFFGIRDDGRKREYGSLDEVRKRSALRSRRKQMRPTGKSVLKRPRKVTDRKTEEKIRTNRRKTPKRRLTKIFQTIRDVFSNDNENMSKMQNVCGDMTRILKKRSQGRPSYMDTDTAKSRILRSDAFKRKISELKYNKQRISELRSGSSDGSSGKDRNQSLYLDREILLQRQIKKRDEKIKALESKLQSLQEALNYSNEKYRILEDLLDSSNIHPSYTKSRRTMSNLARENDEIKPLKIDLSPSPIRRTNSLFTSSPMKTYNRDGNIPEMQPLQENISPACPTPPYRSRETEKEDETLSPISVDFSSYLS

Variants of: B1
Details: with nic96_yeast NIC96, P34077
Sequence of nic96_yeast NIC96, P34077 (P34077 whole entry): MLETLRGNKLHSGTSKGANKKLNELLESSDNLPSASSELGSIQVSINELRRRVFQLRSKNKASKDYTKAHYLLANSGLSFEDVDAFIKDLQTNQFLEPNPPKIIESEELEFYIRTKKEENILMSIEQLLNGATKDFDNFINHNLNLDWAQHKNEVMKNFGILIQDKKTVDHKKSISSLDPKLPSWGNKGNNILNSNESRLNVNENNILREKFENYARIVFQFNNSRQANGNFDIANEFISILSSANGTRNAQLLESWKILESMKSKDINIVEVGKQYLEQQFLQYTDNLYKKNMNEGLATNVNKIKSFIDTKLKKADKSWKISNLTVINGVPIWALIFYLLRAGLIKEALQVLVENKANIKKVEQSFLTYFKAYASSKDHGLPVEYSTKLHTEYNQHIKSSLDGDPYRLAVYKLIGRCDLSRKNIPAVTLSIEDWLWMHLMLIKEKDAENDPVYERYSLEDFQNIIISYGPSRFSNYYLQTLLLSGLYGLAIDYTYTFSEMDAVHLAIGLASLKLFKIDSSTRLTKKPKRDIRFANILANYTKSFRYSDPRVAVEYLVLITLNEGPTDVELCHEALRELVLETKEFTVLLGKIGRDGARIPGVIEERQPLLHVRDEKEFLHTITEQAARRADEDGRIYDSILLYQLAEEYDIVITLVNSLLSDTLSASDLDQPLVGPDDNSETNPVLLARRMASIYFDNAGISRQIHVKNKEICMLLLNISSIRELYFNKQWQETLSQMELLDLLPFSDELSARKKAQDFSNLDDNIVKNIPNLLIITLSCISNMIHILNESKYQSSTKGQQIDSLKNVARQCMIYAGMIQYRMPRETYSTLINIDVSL

effect of a mutation on the interaction | Variant
disrupting interaction | MLKSVQGLWKDFAGIRDDGRKREYGSLDEVRKRSALRSRRKQMRPTGKSVLKRPRKVTDRKTEEKIRTNRRKTPKRRLTKIFQTIRDVFSNDNENMSKMQNVCGDMTRILKKRSQGRPSYMDTDTAKSRILRSDAFKRKISELKYNKQRISELRSGSSDGSSGKDRNQSLYLDREILLQRQIKKRDEKIKALESKLQSLQEALNYSNEKYRILEDLLDSSNIHPSYTKSRRTMSNLARENDEIKPLKIDLSPSPIRRTNSLFTSSPMKTYNRDGNIPEMQPLQENISPACPTPPYRSRETEKEDETLSPISVDFSSYLS [F13A]
disrupting interaction | MLKSVQGLWKDAFGIRDDGRKREYGSLDEVRKRSALRSRRKQMRPTGKSVLKRPRKVTDRKTEEKIRTNRRKTPKRRLTKIFQTIRDVFSNDNENMSKMQNVCGDMTRILKKRSQGRPSYMDTDTAKSRILRSDAFKRKISELKYNKQRISELRSGSSDGSSGKDRNQSLYLDREILLQRQIKKRDEKIKALESKLQSLQEALNYSNEKYRILEDLLDSSNIHPSYTKSRRTMSNLARENDEIKPLKIDLSPSPIRRTNSLFTSSPMKTYNRDGNIPEMQPLQENISPACPTPPYRSRETEKEDETLSPISVDFSSYLS [F12A]

The remaining lines, values behind:

Variant | effect of a mutation on the interaction
MLKSVQGLAKDFFGIRDDGRKREYGSLDEVRKRSALRSRRKQMRPTGKSVLKRPRKVTDRKTEEKIRTNRRKTPKRRLTKIFQTIRDVFSNDNENMSKMQNVCGDMTRILKKRSQGRPSYMDTDTAKSRILRSDAFKRKISELKYNKQRISELRSGSSDGSSGKDRNQSLYLDREILLQRQIKKRDEKIKALESKLQSLQEALNYSNEKYRILEDLLDSSNIHPSYTKSRRTMSNLARENDEIKPLKIDLSPSPIRRTNSLFTSSPMKTYNRDGNIPEMQPLQENISPACPTPPYRSRETEKEDETLSPISVDFSSYLS [W9A] | disrupting interaction
MLKSAQGLWKDFFGIRDDGRKREYGSLDEVRKRSALRSRRKQMRPTGKSVLKRPRKVTDRKTEEKIRTNRRKTPKRRLTKIFQTIRDVFSNDNENMSKMQNVCGDMTRILKKRSQGRPSYMDTDTAKSRILRSDAFKRKISELKYNKQRISELRSGSSDGSSGKDRNQSLYLDREILLQRQIKKRDEKIKALESKLQSLQEALNYSNEKYRILEDLLDSSNIHPSYTKSRRTMSNLARENDEIKPLKIDLSPSPIRRTNSLFTSSPMKTYNRDGNIPEMQPLQENISPACPTPPYRSRETEKEDETLSPISVDFSSYLS [V5A] | disrupting interaction
MAKSVQGLWKDFFGIRDDGRKREYGSLDEVRKRSALRSRRKQMRPTGKSVLKRPRKVTDRKTEEKIRTNRRKTPKRRLTKIFQTIRDVFSNDNENMSKMQNVCGDMTRILKKRSQGRPSYMDTDTAKSRILRSDAFKRKISELKYNKQRISELRSGSSDGSSGKDRNQSLYLDREILLQRQIKKRDEKIKALESKLQSLQEALNYSNEKYRILEDLLDSSNIHPSYTKSRRTMSNLARENDEIKPLKIDLSPSPIRRTNSLFTSSPMKTYNRDGNIPEMQPLQENISPACPTPPYRSRETEKEDETLSPISVDFSSYLS [L2A] | disrupting interaction
